From patent US20230133381A1

Biological target: human DR5 (human)
Assay: SPR (BIAcore X100), human DR5 on CM5 chip, IgG injected, 1:1 Langmuir model

| koff [s⁻¹] | kon [M⁻¹ s⁻¹] | Kd [pM] | Binder |
| --- | --- | --- | --- |
| < 1e-05 | 4.9e+06 | – | DA3 (antibody, V domains shown) VH: EVQLVESGGGLVQPGGSLRLSCAASGFTFSSFNMLWVRQAPGKGLEWVAGIGKSDRYTGYGSAVKGRFTISRDTSKSTVYLQMNSLRAEDTAVYYCVRDAGSGCGSGGWTGACIDTWGQGTLVTVSS VL: DIQMTQSPSSLSASVGDRVTITCSGGDSYAGSYYYGWYQQKPGKAPKTLIYNNNNRPSGVPSRFSGSTSGTDFTLTISSLQPEDFATYYCGSRDSSYVGIFGQGTKVEIK |
| 0.0001 | 4.27e+06 | 23.5 | DA14 (antibody, V domains shown) VH: EVQLVESGGGLVQPGGSLRLSCAASGFTFSSFNMLWVRQAPGKGLEWVAGIGKSDRYTGYGSAVKGRFTISRDTSKNTAYLQMNSLRAEDTAVYYCSRDAGSGCGSGGWTGACIDTWGQGTLVTVSS VL: DIQMTQSPSSLSASVGDRVTITCSGGDSYAGSYYYGWYQQKPGKAPKTLIYNNNNKAKGVPSRFSGSRSGTDFTLTISSLQPEDFATYYCGSRDSSYVGIFGQGTKVEIK |
| 5.53e-05 | 2.11e+06 | 26.1 | DA16 (antibody, V domains shown) VH: EVQLVESGGGLVQPGGSLRLSCAASGFTFSSFNMLWVRQAPGKGLEWVAGIGKSDRYTGYGSAVKGRFTISRDTSKNTAYLQMNSLRAEDTAVYYCSRDAGSGCGSGGWTGACIDTWGQGTLVTVSS VL: DIQMTQSPSSLSASVGDRVTITCSGGDSYAGSYYYGWYQQKPGKAPKTLIYNNNNRPSGVPSRFSGSRSGTDFTLTISSLQPEDFATYYCGSRDSSGAGGFGQGTKVEIK |
| 1.2e-07 | 1.2e+06 | 0.1 | DA4 (antibody, V domains shown) VH: EVQLVESGGGLVQPGGSLRLSCAASGFTFSSFNMLWVRQAPGKGLEWVAGIGKSDRYTGYGSAVKGRFTISRDDSKNTVYLQMNSLRAEDTAVYYCVRDAGSGCGSGGWTGACIDTWGQGTLVTVSS VL: DIQMTQSPSSLSASVGDRVTITCSGGDSYAGSYYYGWYQQKPGKAPKTLIYNNNNRPSGVPSRFSGSTSGTDFTLTISSLQPEDFATYYCGSRDSSYVGIFGQGTKVEIK |
| 2.9e-06 | 1.4e+06 | 1.9 | DA7 (antibody, V domains shown) VH: EVQLVESGGGLVQPGGSLRLSCAASGFTFSSFNMLWVRQAPGKGLEWVAGIGKSDRYTGYGSAVKGRFTISRDDSKSTVYLQMNSLRAEDTAVYYCSRDAGSGCGSGGWTGACIDTWGQGTLVTVSS VL: DIQMTQSPSSLSASVGDRVTITCSGGDSYAGSYYYGWYQQKPGKAPKTLIYNNNNRPSGVPSRFSGSTSGTDFTLTISSLQPEDFATYYCGSRDSSYVGIFGQGTKVEIK |
| 4.2e-06 | 7.8e+06 | 0.53 | DA6 (antibody, V domains shown) VH: EVQLVESGGGLVQPGGSLRLSCAASGFTFSSFNMLWVRQAPGKGLEWVAGIGKSDRYTGYGSAVKGRFTISRDDSKSTVYLQMNSLRAEDTAVYYCARDAGSGCGSGGWTGACIDTWGQGTLVTVSS VL: DIQMTQSPSSLSASVGDRVTITCSGGDSYAGSYYYGWYQQKPGKAPKTLIYNNNNRPSGVPSRFSGSTSGTDFTLTISSLQPEDFATYYCGSRDSSYVGIFGQGTKVEIK |
| 7.17e-06 | 1.11e+06 | 6.43 | DA21 (antibody, V domains shown) VH: EVQLVESGGGLVQPGGSLRLSCAASGFTFSSFNMLWVRQAPGKGLEWVAGIGKSDRYTGYGSAVKGRFTISRDDSKSTVYLQMNSLRAEDTAVYYCVRDAGSGCGSGGWTGACIDTWGQGTLVTVSS VL: DIQMTQSPSSLSASVGDRVTITCSGGDSYAGSYYYGWYQQKPGKAPKTLIYNNNNRPSGVPSRFSGSRSGTDFTLTISSLQPEDFATYYCGSRDSSGAGGFGQGTKVEIK |
| 2.99e-05 | 2.37e+06 | 12.7 | DA12 (antibody, V domains shown) VH: EVQLVESGGGLVQPGGSLRLSCAASGFTFSSFNMLWVRQAPGKGLEWVAGIGKSDRYTGYGSAVKGRFTISRDTSKNTAYLQMNSLRAEDTAVYYCSRDAGSGCGSGGWTGACIDTWGQGTLVTVSS VL: DIQMTQSPSSLSASVGDRVTITCSGGDSYAGSYYYGWYQQKPGKAPKTLIYNNNNLMPGVPSRFSGSRSGTDFTLTISSLQPEDFATYYCGSRDSSYVGIFGQGTKVEIK |
| – | 1.9e+06 | < 5.3 | DA2 (antibody, V domains shown) VH: EVQLVESGGGLVQPGGSLRLSCAASGFTFSSFNMLWVRQAPGKGLEWVAGIGKSDRYTGYGSAVKGRFTISRDDSKSTVYLQMNSLRAEDTAVYYCVRDAGSGCGSGGWTGACIDTWGQGTLVTVSS VL: DIQMTQSPSSLSASVGDRVTITCSGGDSYAGSYYYGWYQQKPGKAPKTLIYNNNNRPSGVPSRFSGSRSGTDFTLTISSLQPEDFATYYCGSRDSSYVGIFGQGTKVEIK |
| 1.6e-05 | 2.3e+06 | 7 | DA10 (antibody, V domains shown) VH: EVQLVESGGGLVQPGGSLRLSCAASGFTFSSFNMLWVRQAPGKGLEWVAGIGKSDRYTGYGSAVKGRFTISRDTSKNTAYLQMNSLRAEDTAVYYCSRDAGSGCGSGGWTGACIDTWGQGTLVTVSS VL: DIQMTQSPSSLSASVGDRVTITCSGGDSYAGSYYYGWYQQKPGKAPKTLIYNNNNRPSGVPSRFSGSRSGTDFTLTISSLQPEDFATYYCGSRDSSYVGIFGQGTKVEIK |
| 2.94e-05 | 2.62e+06 | 11.2 | DA13 (antibody, V domains shown) VH: EVQLVESGGGLVQPGGSLRLSCAASGFTFSSFNMLWVRQAPGKGLEWVAGIGKSDRYTGYGSAVKGRFTISRDTSKNTAYLQMNSLRAEDTAVYYCSRDAGSGCGSGGWTGACIDTWGQGTLVTVSS VL: DIQMTQSPSSLSASVGDRVTITCSGGDSYAGSYYYGWYQQKPGKAPKTLIYNNNNRPSGVPSRFSGSRSGTDFTLTISSLQPEDFATYYCGSRDSAGMGAFGQGTKVEIK |
| < 1e-05 | 4.9e+06 | < 2 | DA1 (antibody, V domains shown) VH: EVQLVESGGGLVQPGGSLRLSCAASGFTFSSFNMLWVRQAPGKGLEWVAGIGKSDRYTGYGSAVKGRFTISRDDSKSTVYLQMNSLRAEDTAVYYCVRDAGSGCGSGGWTGACIDTWGQGTLVTVSS VL: DIQMTQSPSSLSASVGDRVTITCSGGDSYAGSYYYGWYQQKPGKAPKTLIYNNNNRPSGVPSRFSGSTSGTDFTLTISSLQPEDFATYYCGSRDSSYVGIFGQGTKVEIK |
| 1.21e-05 | 1e+06 | 12 | DA20 (antibody, V domains shown) VH: EVQLVESGGGLVQPGGSLRLSCAASGFTFSSFNMLWVRQAPGKGLEWVAGIGKSDRYTGYGSAVKGRFTISRDDSKSTVYLQMNSLRAEDTAVYYCVRDAGSGCGSGGWTGACIDTWGQGTLVTVSS VL: DIQMTQSPSSLSASVGDRVTITCSGGDSYAGSYYYGWYQQKPGKAPKTLIYNNNNRPSGVPSRFSGSRSGTDFTLTISSLQPEDFATYYCGSRDSAGMGAFGQGTKVEIK |
| 9.12e-05 | 1.13e+06 | 80.1 | DA35 (antibody, V domains shown) VH: AVTLDESGGGLQTPGGGLSLVCKGSGFTFSSFNMLWVRQAPGKGLEWVAGIGKSDRYTGYGSAVKGRATISRDDGQSTARLQMNSLRAEDTAVYYCVKDAGSGCGSGGWTGACIDTWGHGTEVIVSS VL: LTQPSSVSANLGGTVEITCSGGDSYAGSYYYGWYQQKAPGSAPVTVIYNNNNRPSNIPSRFSGSTSGSTATLTITGVQAEDEATYFCGSRDSSYVGIFGAGTTLTVL |
| 9.5e-05 | 1e+06 | 94.2 | DA34 (antibody, V domains shown) VH: AVTLDESGGGLQTPGGGLSLVCKGSGFTFSSFNMLWVRQAPGKGLEWVAGIGKSDRYTGYGSAVKGRATISRDDGQSTAYLQMNSLRAEDTAVYYCVKDAGSGCGSGGWTGACIDTWGHGTEVIVSS VL: LTQPSSVSANLGGTVEITCSGGDSYAGSYYYGWYQQKAPGSAPVTVIYNNNNRPSNIPSRFSGSTSGSTATLTITGVQAEDEATYYCGSRDSSYVGIFGAGTTLTVL |
| 1.23e-06 | 1.2e+06 | 1.02 | DA24 (antibody, V domains shown) VH: AVTLDESGGGLQTPGGGLSLVCKGSGFTFSSFNMLWVRQAPGKGLEWVAGIGKSDRYTGYGSAVKGRATISRDDGQSTVRLQLNNLRAEDTGTYYCVKDAGSGCGSGGWTGACIDTWGHGTEVIVSS VL: LTQPSSVSANLGGTVEITCSGGDSYAGSYYYGWYQQKAPGSAPVTVIYNNNNRPSNIPSRFSGSTSGSTATLTITGVQAEDEATYYCGSRDSSYVGIFGAGTTLTVL |
| 8.59e-05 | 1.14e+06 | 75.1 | DA32 (antibody, V domains shown) VH: AVTLDESGGGLQTPGGGLSLVCKGSGFTFSSFNMLWVRQAPGKGLEWVAGIGKSDRYTGYGSAVKGRATISRDDGQSTVRLQLNNLRAEDTAVYYCVKDAGSGCGSGGWTGACIDTWGHGTEVIVSS VL: LTQPSSVSANLGGTVEITCSGGDSYAGSYYYGWYQQKAPGSAPVTVIYNNNNRPSNIPSRFSGSTSGSTATLTITGVQAEDEAVYFCGSRDSSYVGIFGAGTTLTVL |
| 2.24e-06 | 1.17e+06 | 1.92 | DA27 (antibody, V domains shown) VH: AVTLDESGGGLQTPGGGLSLVCKGSGFTFSSFNMLWVRQAPGKGLEWVAGIGKSDRYTGYGSAVKGRATISRDDGQSTVRLQLNNLRAEDTGTYYCVKDAGSGCGSGGWTGACIDTWGHGTEVIVSS VL: LTQPSSVSANLGGTVEITCSGGDSYAGSYYYGWYQQKAPGSAPVTVIYNNNNRPSNIPSRFSGSTSGSTATLTITGVQAEDEATYFCGSRDSSYVGIFGAGTTLTVL |
| 1.71e-06 | 1.05e+06 | 1.62 | DA25 (antibody, V domains shown) VH: AVTLDESGGGLQTPGGGLSLVCKGSGFTFSSFNMLWVRQAPGKGLEWVAGIGKSDRYTGYGSAVKGRATISRDDGQSTVYLQMNSLRAEDTGTYYCVKDAGSGCGSGGWTGACIDTWGHGTEVIVSS VL: LTQPSSVSANLGGTVEITCSGGDSYAGSYYYGWYQQKAPGSAPVTVIYNNNNRPSNIPSRFSGSTSGSTATLTITGVQAEDEAVYFCGSRDSSYVGIFGAGTTLTVL |
